How the values were obtained:
Experiment in all cases: alanine scan, flow cytometry;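 also: HEK293-T cells transiently expressing single-residue alanine mutants of CD33 (alanine swapped to serine), antibody binding read by fluorescence in duplicate, background-subtracted, expressed relative to wild-type CD33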
[1] = target: human CD33 W22A (human, UniProt P20138 18-364)
[2] = target: human CD33 L23A (human, UniProt P20138 18-364)
[3] = target: human CD33 Q24A (human, UniProt P20138 18-364)
[4] = target: human CD33 E27A (human, UniProt P20138 18-364)
[5] = target: human CD33 V29A (human, UniProt P20138 18-364)
[6] = target: human CD33 V31A (human, UniProt P20138 18-364)
[7] = target: human CD33 E33A (human, UniProt P20138 18-364)
[8] = target: human CD33 C36A (human, UniProt P20138 18-364)
[9] = target: human CD33 V37A (human, UniProt P20138 18-364)
[10] = target: human CD33 T42A (human, UniProt P20138 18-364)
Chain of human CD33 T42A (P20138 18-364 T42A limits assumed): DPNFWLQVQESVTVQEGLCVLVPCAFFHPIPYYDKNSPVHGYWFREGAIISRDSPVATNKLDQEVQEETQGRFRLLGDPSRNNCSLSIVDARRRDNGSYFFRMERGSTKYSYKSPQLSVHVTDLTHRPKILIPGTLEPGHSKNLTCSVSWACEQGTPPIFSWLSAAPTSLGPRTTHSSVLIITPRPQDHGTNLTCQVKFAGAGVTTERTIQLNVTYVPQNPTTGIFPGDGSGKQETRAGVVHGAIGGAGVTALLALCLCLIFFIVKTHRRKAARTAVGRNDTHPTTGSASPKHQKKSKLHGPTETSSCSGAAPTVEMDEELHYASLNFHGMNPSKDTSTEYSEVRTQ

[11] = target: human CD33 F43A (human, UniProt P20138 18-364)
[12] = target: human CD33 H45A (human, UniProt P20138 18-364)
[13] = target: human CD33 I47A (human, UniProt P20138 18-364)
[14] = target: human CD33 P48A (human, UniProt P20138 18-364)
[15] = target: human CD33 Y50A (human, UniProt P20138 18-364)
Chain of human CD33 Y50A (P20138 18-364 Y50A limits assumed): as the sequence (P20138 18-364 T42A limits assumed) above, with A25T, Y33A counted along it

[16] = target: human CD33 K52A (human, UniProt P20138 18-364)
Chain of human CD33 K52A (P20138 18-364 K52A limits assumed): as the sequence (P20138 18-364 T42A limits assumed) above, with A25T, K35A counted along it

[17] = target: human CD33 S54A (human, UniProt P20138 18-364)
[18] = target: human CD33 H57A (human, UniProt P20138 18-364)
[19] = target: human CD33 G58A (human, UniProt P20138 18-364)
[20] = target: human CD33 Y59A (human, UniProt P20138 18-364)
[21] = target: human CD33 W60A (human, UniProt P20138 18-364)
Chain of human CD33 W60A (P20138 18-364 W60A limits assumed): as the sequence (P20138 18-364 T42A limits assumed) above, with A25T, W43A counted along it

[22] = target: human CD33 F61A (human, UniProt P20138 18-364)
[23] = target: human CD33 R62A (human, UniProt P20138 18-364)
[24] = target: human CD33 E63A (human, UniProt P20138 18-364)
[25] = target: human CD33 A65S (human, UniProt P20138 18-364)
Chain of human CD33 A65S (P20138 18-364 A65S limits assumed): as the sequence (P20138 18-364 T42A limits assumed) above, with A25T, A48S counted along it

[26] = target: human CD33 I66A (human, UniProt P20138 18-364)
Chain of human CD33 I66A (P20138 18-364 I66A limits assumed): as the sequence (P20138 18-364 T42A limits assumed) above, with A25T, I49A counted along it

[27] = target: human CD33 I67A (human, UniProt P20138 18-364)
[28] = target: human CD33 S68A (human, UniProt P20138 18-364)
[29] = target: human CD33 R69A (human, UniProt P20138 18-364)
Chain of human CD33 R69A (P20138 18-364 R69A limits assumed): as the sequence (P20138 18-364 T42A limits assumed) above, with A25T, R52A counted along it

[30] = target: human CD33 D70A (human, UniProt P20138 18-364)
[31] = target: human CD33 P72A (human, UniProt P20138 18-364)
[32] = target: human CD33 V73A (human, UniProt P20138 18-364)
[33] = target: human CD33 A74S (human, UniProt P20138 18-364)
Chain of human CD33 A74S (P20138 18-364 A74S limits assumed): as the sequence (P20138 18-364 T42A limits assumed) above, with A25T, A57S counted along it

[34] = target: human CD33 T75A (human, UniProt P20138 18-364)
Chain of human CD33 T75A (P20138 18-364 T75A limits assumed): as the sequence (P20138 18-364 T42A limits assumed) above, with A25T, T58A counted along it

[35] = target: human CD33 N76A (human, UniProt P20138 18-364)
[36] = target: human CD33 K77A (human, UniProt P20138 18-364)
Chain of human CD33 K77A (P20138 18-364 K77A limits assumed): as the sequence (P20138 18-364 T42A limits assumed) above, with A25T, K60A counted along it

[37] = target: human CD33 V82A (human, UniProt P20138 18-364)
[38] = target: human CD33 E84A (human, UniProt P20138 18-364)
[39] = target: human CD33 E85A (human, UniProt P20138 18-364)
Chain of human CD33 E85A (P20138 18-364 E85A limits assumed): as the sequence (P20138 18-364 T42A limits assumed) above, with A25T, E68A counted along it

[40] = target: human CD33 T86A (human, UniProt P20138 18-364)
[41] = target: human CD33 N20A (human, UniProt P20138 18-364)
Chain of human CD33 N20A (P20138 18-364 N20A limits assumed): as the sequence (P20138 18-364 T42A limits assumed) above, with N3A, A25T counted along it

[42] = target: human CD33 F21A (human, UniProt P20138 18-364)
Chain of human CD33 F21A (P20138 18-364 F21A limits assumed): as the sequence (P20138 18-364 T42A limits assumed) above, with F4A, A25T counted along it

Chain of human CD33 Q24A (P20138 18-364 Q24A limits assumed): as the sequence (P20138 18-364 T42A limits assumed) above, with Q7A, A25T counted along it

Mean % WT Binding [1]: 110 % WT
Mean % WT Binding [2]: 83.4 % WT
Mean % WT Binding [3]: 103 % WT
Mean % WT Binding [4]: 111 % WT
Mean % WT Binding [5]: 100 % WT
Mean % WT Binding [6]: 106 % WT
Mean % WT Binding [7]: 120 % WT
Mean % WT Binding [8]: 117 % WT
Mean % WT Binding [9]: 118 % WT
Mean % WT Binding [10]: 112 % WT
Mean % WT Binding [11]: 10.6 % WT
Mean % WT Binding [12]: 73.6 % WT
Mean % WT Binding [13]: 2.1 % WT
Mean % WT Binding [14]: 109 % WT
Mean % WT Binding [15]: 141 % WT
Mean % WT Binding [16]: 94.9 % WT
Mean % WT Binding [17]: 112 % WT
Mean % WT Binding [18]: 112 % WT
Mean % WT Binding [19]: 118 % WT
Mean % WT Binding [20]: 95.7 % WT
Mean % WT Binding [21]: 2.8 % WT
Mean % WT Binding [22]: 135 % WT
Mean % WT Binding [23]: 124 % WT
Mean % WT Binding [24]: 107 % WT
Mean % WT Binding [25]: 112 % WT
Mean % WT Binding [26]: 118 % WT
Mean % WT Binding [27]: 122 % WT
Mean % WT Binding [28]: 112 % WT
Mean % WT Binding [29]: 138 % WT
Mean % WT Binding [30]: 110 % WT
Mean % WT Binding [31]: 114 % WT
Mean % WT Binding [32]: 99.1 % WT
Mean % WT Binding [33]: 91.7 % WT
Mean % WT Binding [34]: 114 % WT
Mean % WT Binding [35]: 106 % WT
Mean % WT Binding [36]: 123 % WT
Mean % WT Binding [37]: 116 % WT
Mean % WT Binding [38]: 114 % WT
Mean % WT Binding [39]: 114 % WT
Mean % WT Binding [40]: 113 % WT
Mean % WT Binding [41]: 121 % WT
Mean % WT Binding [42]: 120 % WT
B1: Refmab #2 (antibody, V domains shown)
VH: QVQLVQSGAEVKKPGSSVKVSCKASGGTFSDYAISWVRQAPGQGLEWMGRIIPILGVADYAQKFQGRVTITADKSTRTAYMELSSLRSEDTAVYYCARNWADAFDIWGQGTMVTVSS
VL: DIQLTQSPSSLSASVGDRVTITCRASQGISSVLAWYQQKPGKAPKLLIYDASSLESGVPSRFSGSGSGTDFTLTISSLQPEDFATYYCQQFDSSITFGQGTKLEIK
notes: Full-length format is human IgG1 Fc silent (PG-LALA); The alanine scan used IgG or Fab

— patent US20260242735A1 (UNIVERSIT T BASEL, published 2026)
